Data taken from PMC9482650, “Quantitative fragmentomics allow affinity mapping of interactomes” (Nature Communications, 2022).

Key:
Experiment in all cases: holdup assay
Parameters in all cases: key: below the threshold = too weak to quantify, mostly under pKd 3.1 to 4
[1] = target: T1, ARHGEF11, O15085
T1 sequence (O15085 42-136, limits assumed, looked up): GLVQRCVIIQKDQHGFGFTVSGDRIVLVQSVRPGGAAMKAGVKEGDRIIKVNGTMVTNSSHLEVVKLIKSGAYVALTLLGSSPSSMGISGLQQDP

[2] = target: T2, PARD3B_1, Q8TEW8
T2 sequence (Q8TEW8 196-299, limits assumed, looked up): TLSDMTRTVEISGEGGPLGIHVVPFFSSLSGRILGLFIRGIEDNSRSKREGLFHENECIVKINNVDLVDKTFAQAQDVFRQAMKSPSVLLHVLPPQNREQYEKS

[3] = target: T3, DFNB31_3, Q9P202
T3 sequence (Q9P202 811-907, limits assumed, looked up): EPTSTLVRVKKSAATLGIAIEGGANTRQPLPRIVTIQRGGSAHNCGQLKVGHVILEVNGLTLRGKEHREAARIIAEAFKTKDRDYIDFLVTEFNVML

[4] = target: IL16_3, Q14005
Sequence of IL16_3, Q14005 (Q14005 1107-1207): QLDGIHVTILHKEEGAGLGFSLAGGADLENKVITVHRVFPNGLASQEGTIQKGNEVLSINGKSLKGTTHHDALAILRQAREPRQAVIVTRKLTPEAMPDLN

[5] = target: T4, SIPA1L2, Q9P2F8
T4 sequence (Q9P2F8 945-1036, limits assumed, looked up): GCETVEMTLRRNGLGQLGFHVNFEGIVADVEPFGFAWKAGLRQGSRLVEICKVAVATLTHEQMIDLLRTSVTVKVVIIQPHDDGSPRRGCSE

[6] = target: GRIP2_5, Q9C0E4
Sequence of GRIP2_5, Q9C0E4 (Q9C0E4 544-642): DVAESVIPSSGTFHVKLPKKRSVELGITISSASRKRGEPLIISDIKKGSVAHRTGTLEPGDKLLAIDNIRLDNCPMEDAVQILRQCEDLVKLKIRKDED

[7] = target: T5, SNTB1, Q13884
T5 sequence (Q13884 107-205, limits assumed, looked up): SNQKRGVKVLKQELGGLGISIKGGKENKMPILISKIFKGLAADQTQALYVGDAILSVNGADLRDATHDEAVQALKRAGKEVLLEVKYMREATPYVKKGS

[8] = target: MAST1, Q9Y2H9
Sequence of MAST1, Q9Y2H9 (Q9Y2H9 962-1065): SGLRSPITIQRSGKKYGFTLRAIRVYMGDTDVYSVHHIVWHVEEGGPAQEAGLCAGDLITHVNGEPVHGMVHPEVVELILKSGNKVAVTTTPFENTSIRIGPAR

[9] = target: T6, GRIP1_7, Q9Y3R0
T6 sequence (Q9Y3R0 999-1096, limits assumed, looked up): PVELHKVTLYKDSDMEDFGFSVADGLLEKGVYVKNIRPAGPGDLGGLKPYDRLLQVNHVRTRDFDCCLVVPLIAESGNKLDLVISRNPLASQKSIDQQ

[10] = target: LAP2, Q96RT1
Sequence of LAP2, Q96RT1 (Q96RT1 other isoform, or with tags, fused parts or gaps): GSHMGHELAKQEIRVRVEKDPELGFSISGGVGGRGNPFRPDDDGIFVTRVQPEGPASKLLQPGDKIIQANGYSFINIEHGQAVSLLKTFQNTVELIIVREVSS

[11] = target: IL16_4, Q14005
Sequence of IL16_4, Q14005 (Q14005 1229-1329): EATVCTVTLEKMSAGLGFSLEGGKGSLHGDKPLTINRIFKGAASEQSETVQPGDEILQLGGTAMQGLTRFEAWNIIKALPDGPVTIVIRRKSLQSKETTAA

[12] = target: MAGI2_3, Q86UL8
Sequence of MAGI2_3, Q86UL8 (Q86UL8 600-682): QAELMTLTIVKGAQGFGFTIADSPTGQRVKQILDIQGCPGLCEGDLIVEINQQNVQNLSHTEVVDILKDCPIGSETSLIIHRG

[13] = target: FRMPD2_1, Q68DX3
Sequence of FRMPD2_1, Q68DX3 (Q68DX3 770-861): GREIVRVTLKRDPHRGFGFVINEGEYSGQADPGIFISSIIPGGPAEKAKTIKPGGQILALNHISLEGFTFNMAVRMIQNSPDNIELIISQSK

[14] = target: MAGI2_6, Q86UL8
Sequence of MAGI2_6, Q86UL8 (Q86UL8 1141-1229): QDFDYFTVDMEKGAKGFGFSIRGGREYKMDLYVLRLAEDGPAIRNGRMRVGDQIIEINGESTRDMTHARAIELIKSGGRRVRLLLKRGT

[15] = target: Inadl_3, Q8NI35
Sequence of Inadl_3, Q8NI35 (Q8NI35 359-469): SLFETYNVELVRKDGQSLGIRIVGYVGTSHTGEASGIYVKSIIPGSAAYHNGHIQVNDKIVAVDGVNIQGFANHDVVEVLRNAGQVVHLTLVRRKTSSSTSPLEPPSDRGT

[16] = target: T7, GRIP1_2, Q9Y3R0
T7 sequence (Q9Y3R0 145-248, limits assumed, looked up): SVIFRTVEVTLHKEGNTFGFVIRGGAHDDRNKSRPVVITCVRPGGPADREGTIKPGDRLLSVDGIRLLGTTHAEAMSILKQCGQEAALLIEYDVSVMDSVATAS

[17] = target: T8, NHERF3_4, Q5T2W1
T8 sequence (Q5T2W1 373-468, limits assumed, looked up): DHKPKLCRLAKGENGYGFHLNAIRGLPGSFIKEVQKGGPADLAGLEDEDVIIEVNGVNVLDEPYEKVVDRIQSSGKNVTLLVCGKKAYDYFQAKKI

[18] = target: T9, MPDZ_12, O75970
T9 sequence (O75970 1857-1958, limits assumed, looked up): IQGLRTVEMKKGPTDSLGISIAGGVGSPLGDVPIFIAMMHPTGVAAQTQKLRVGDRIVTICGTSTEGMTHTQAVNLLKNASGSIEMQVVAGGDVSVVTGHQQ

[19] = target: LNX1_3, Q8TBB1
Sequence of LNX1_3, Q8TBB1 (Q8TBB1 500-596): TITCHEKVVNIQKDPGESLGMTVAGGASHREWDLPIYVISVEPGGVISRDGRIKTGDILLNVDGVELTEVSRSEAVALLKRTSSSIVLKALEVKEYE

[20] = target: T10, ARHGAP21, Q5T5U3
T10 sequence (Q5T5U3 45-169, limits assumed, looked up): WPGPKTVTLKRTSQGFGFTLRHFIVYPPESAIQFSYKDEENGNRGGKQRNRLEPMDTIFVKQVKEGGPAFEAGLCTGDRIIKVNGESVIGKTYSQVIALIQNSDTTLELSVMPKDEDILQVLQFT

[21] = target: T11, LNX2_3, Q8N448
T11 sequence (Q8N448 463-564, limits assumed, looked up): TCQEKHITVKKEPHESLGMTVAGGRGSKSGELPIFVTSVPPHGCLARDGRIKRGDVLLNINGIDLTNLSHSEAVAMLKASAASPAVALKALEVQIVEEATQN

[22] = target: T12, PCLO, Q9Y6V0
T12 sequence (Q9Y6V0 4491-4600, limits assumed, looked up): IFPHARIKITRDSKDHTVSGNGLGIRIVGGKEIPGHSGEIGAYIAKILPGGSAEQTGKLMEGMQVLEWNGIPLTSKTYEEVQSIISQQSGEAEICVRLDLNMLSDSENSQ

[23] = target: T13, MPDZ_10, O75970
T13 sequence (O75970 1624-1722, limits assumed, looked up): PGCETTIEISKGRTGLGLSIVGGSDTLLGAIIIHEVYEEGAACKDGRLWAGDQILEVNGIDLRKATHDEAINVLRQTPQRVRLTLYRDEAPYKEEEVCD

[24] = target: DLG4_2, P78352
Sequence of DLG4_2, P78352 (P78352 155-259): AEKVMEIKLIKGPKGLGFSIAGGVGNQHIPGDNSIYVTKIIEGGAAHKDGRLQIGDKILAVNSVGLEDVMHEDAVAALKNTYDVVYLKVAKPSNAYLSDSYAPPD

[25] = plain residues with an end cap or a label only (N-terminal biotin on a linker: ado-ado)
[26] = plain residues with an end cap or a label only (N-terminal biotin on a linker: ahx)

## DFLSTFHIRI [CIB2, O75838]
[1]; [25]
  pKd: 3.64
[2]; [25]
  pKd: 4.68
[3]; [25]
  pKd: 3.5
[4]; [25]
  pKd: below the threshold
[5]; [25]
  pKd: below the threshold
[6]; [25]
  pKd: below the threshold
[7]; [25]
  pKd: below the threshold
[8]; [25]
  pKd: below the threshold
[9]; [25]
  pKd: below the threshold
[10]; [25]
  pKd: below the threshold
[11]; [25]
  pKd: below the threshold
[12]; [25]
  pKd: below the threshold
[13]; [25]
  pKd: below the threshold
[14]; [25]
  pKd: below the threshold
[15]; [25]
  pKd: 4.49
[16]; [25]
  pKd: below the threshold
[17]; [25]
  pKd: 3.66
[18]; [25]
  pKd: below the threshold
[19]; [25]
  pKd: 4.28
[20]; [25]
  pKd: 4.13
[21]; [25]
  pKd: below the threshold
[22]; [25]
  pKd: below the threshold
[23]; [25]
  pKd: below the threshold
[24]; [25]
  pKd: below the threshold

## EIPAQSPTCV [FZD10, Q9ULW2]
[1]; [25]
  pKd: 4.2
[2]; [25]
  pKd: below the threshold
[3]; [25]
  pKd: below the threshold
[4]; [25]
  pKd: below the threshold
[5]; [25]
  pKd: 3.69
[6]; [25]
  pKd: 3.7
[7]; [25]
  pKd: 3.75
[8]; [25]
  pKd: below the threshold
[9]; [25]
  pKd: 3.67
[10]; [25]
  pKd: 3.73
[11]; [25]
  pKd: below the threshold
[12]; [25]
  pKd: below the threshold
[13]; [25]
  pKd: 3.92
[14]; [25]
  pKd: 3.85
[15]; [25]
  pKd: 3.62
[16]; [25]
  pKd: 3.67
[17]; [25]
  pKd: below the threshold
[18]; [25]
  pKd: below the threshold
[19]; [25]
  pKd: below the threshold
[20]; [25]
  pKd: 4.12
[21]; [25]
  pKd: 3.78
[22]; [25]
  pKd: 3.47
[23]; [25]
  pKd: 3.89
[24]; [25]
  pKd: 4.11

## QPRTWLQSPV [RTKN, Q9BST9]
[1]; [26]
  pKd: below the threshold
[2]; [26]
  pKd: below the threshold
[3]; [26]
  pKd: below the threshold
[4]; [26]
  pKd: below the threshold
[5]; [26]
  pKd: below the threshold
[6]; [26]
  pKd: below the threshold
[7]; [26]
  pKd: below the threshold
[8]; [26]
  pKd: 3.85
[9]; [26]
  pKd: below the threshold
[10]; [26]
  pKd: 4.42
[11]; [26]
  pKd: below the threshold
[12]; [26]
  pKd: below the threshold
[13]; [26]
  pKd: below the threshold
[14]; [26]
  pKd: below the threshold
[15]; [26]
  pKd: below the threshold
[16]; [26]
  pKd: below the threshold
[17]; [26]
  pKd: below the threshold
[18]; [26]
  pKd: below the threshold
[19]; [26]
  pKd: below the threshold
[20]; [26]
  pKd: below the threshold
[21]; [26]
  pKd: below the threshold
[22]; [26]
  pKd: below the threshold
[23]; [26]
  pKd: 3.97
[24]; [26]
  pKd: 4.27
